Measurements published in the supplement of paper PMC10567573.

B1: WDFY2 (parent)
chain: FWNFKQMWDSKKIGLRQHHCRKCG
B2: ZNF449 (parent)
chain: YRHQRLHTGERPYECTVCKKRFTR

Variants of: B1
Assay: protein stability index of a GFP-peptide fusion (GPS, HEK-293T) (PSI 1-6); higher = more stable
Details: c terminus: a fixed tail appended
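Also: lentivirally expressed fusions sorted by FACS into six bins by GFP to DsRed ratio, PSI derived from sequencing read proportions per bin multiplied by bin number.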

Protein stability index: each site, then its substitutions
K22: D 1.79; T 2.87; M 1.8; H 1.23; N 1.57; V 1.7; Q 2.21; L 1.47; A 1.09; G 1.65; Y 1.78; E 1.65; S 2.72; I 4.49
C23: R 1.79; P 2.16; S 1.78; W 2.45; F 2.17; A 1.78; G 2.14; T 2.44; M 1.94; D 1.89; Y 1.92; V 1.79; I 2.48; K 2.38; L 2.01; H 2.24; N 2.21
C20: Y 1.84; W 3.08
R21: A 2.34; P 1.53; F 1.76; E 2.02; N 2.46; K 2.01; G 1.85; S 1.72; D 2.04; T 1.71; M 2.21; H 2.66; L 1.1; I 1.29; Q 2.11; V 1.21; Y 1.58
G24: V 3.27; W 1.68; K 1.98; T 2.7; L 1.43; Q 1.95; H 1.71; P 2.03; D 2.09; F 1.23; I 1.51; Y 2.73; C 2.4; N 1.67; A 1.58; S 2.39; R 2.3; E 2.13; M 2.38

Variants of: B2
Assay: as above
Details: c terminus: a fixed tail appended

Protein stability index, by site and new letter:
Q4: G 2.34; D 2.22; L 1.78; R 2.36; T 2.64; C 2.99; W 2.11; H 3.41; A 2.44; F 1.88; M 1.73; Y 1.78; P 2.03; V 2.13; N 2.24; S 2.35; K 2.39; E 2.3; I 1.93
R5: Y 2.2; P 2.08; S 2.24; N 2.21; G 2.31; E 1.91; I 1.89; T 1.69; H 3; D 2.06; W 2.29; Q 2.61; L 2.15; K 2.18; M 2.25; C 3.51; V 2.19; F 2.49; A 2.08
L6: D 2.37; C 3.06; E 2.09; A 2.77
R2: E 2.65; P 1.63; T 1.8; Q 2.12; V 3.09; C 2.66; M 2.33; D 2.48; A 1.81; W 1.57; Y 2.38; G 2.92; S 2.76; N 1.56; I 2.65; L 2.16; F 1.88; K 2.32
H3: M 2.14; V 2.03; Y 1.81; G 2.28; K 2.05; I 2.12; S 2.35; A 1.89; F 1.66; D 2.15; W 1.65; Q 2.21; C 2.4; N 2.69; L 1.52; R 2.44; P 2.68; E 1.83; T 2.56
Y1: P 2.7; K 2.77; C 3.93; W 1.97; Q 2.88; L 2.83; V 2.45; T 2.65; F 1.65; A 3.22; H 2.98; S 3.05; M 2.92; N 2.35; E 3.16; G 2.21; R 3.05; D 2.58; I 2.55
